The series deals with Cys15 (UniProt position 15, GTTNSCVAIMD). In words: UV-vis. Conditions: 25 °C; 100 mM KCl, 5 mM MgCl2 (plus KOH added during titration); Buffer B: 50 mM Tris-HCl, pH 7.5, 100 mM KCl, 5 mM MgCl2. The pH was raised by stepwise addition of 6 N KOH in Buffer B.; Reduced (free thiol) DnaK with no nucleotide or peptide added (apo state), 15 μM protein.

For “Chaperone protein DnaK (Hsp70) (Escherichia coli)”, the pKa result is listed as “about 12”.

The record behind these values is publication PMC4807281, “Glutathionylation of the Bacterial Hsp70 Chaperone DnaK Provides a Link between Oxidative Stress and the Heat Shock Response” (The Journal of Biological Chemistry, 2016).
